This experiment concerns the target CD22mFc (UniProt P20273 20-687). Briefly: Biacore. (Surface plasmon resonance follows binding to a sensor surface in real time, without labels.)

The values that follow come from patent US20040192900A1 (published 2004).

Changes are numbered by the printed parent chain. In names and notes the source's numbering stands.

B1: chimeric 5/44 variant K60R (antibody, V domains shown)
VH: EVQLQQSGTVLARPGASVKMSCKASGYRFTNYWIHWVKQRPGQGLEWIGGINPGNNYTTYRRNLKGKATLTAVTSASTAYMDLSSLTSEDSAVYYCTREGYGNYGAWFAYWGQGTLVTVSS
VL: DVVVTQTPLSLPVSFGDQVSISCRSSQSLANSYGNTFLSWYLHKPGQSPQLLIYGISNRFSGVPDRFTGSGSGTDFTLKISTIKPEDLGMYYCLQGTHQPYTFGGGTKLEIKR
B1 yielded a Kd of 0.204 nM.

B2: chimeric 5/44 variant T57A (antibody, V domains shown)
VH: B1 VH with T58A, R61K
VL: B1 VL
Consider B2, for which binding was characterised by a dissociation constant (Kd) of 0.066 nM.

B3: chimeric 5/44 variant N55Q (antibody, V domains shown)
VH: B1 VH with N56Q, R61K
VL: B1 VL
Molecule B3 gave a Kd of 0.327 nM.

One may read the Kd as the free concentration of one partner at which half of the binding sites on the other are occupied at equilibrium, for simple one-to-one binding. Read a low Kd as a tighter complex.
